Test results from patent US20230414780A1 (VECT HORUS, published 2023).
Where two headings read alike, the source gives them in different places.

Key:
[1] = target: T1, human TfR ectodomain fused to a mouse IgG1 Fc fragment (human, UniProt P02786 89-760); assay: SPR, kinetic
T1 construct: extracellular domain; ectodomain fused to the N-terminal end of the Fc, made in-house; not shown: mouse IgG1 Fc fragment
Outline: (§1)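 TfR–mouse Fc fusions, produced in-house, captured on HC 1500M or CM5 chips either directly or via immobilized anti-mouse IgG. VHHs injected in single-cycle or multiple-cycle kinetic mode on Biacore T200.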

[2] = target: T2, mouse TfR ectodomain fused to a mouse IgG1 Fc fragment (mouse, UniProt Q62351 89-763); assay: SPR, kinetic
T2 construct: extracellular domain; not shown: mouse IgG1 Fc fragment
Outline: as §1

[3] = target: T3, rhesus monkey TfR ectodomain fused to a mouse IgG1 Fc fragment (rhesus monkey, UniProt I0FKY7 89-760); assay: SPR, kinetic
T3 construct: extracellular domain; not shown: mouse IgG1 Fc fragment
Outline: as §1

[4] = target: T4, human transferrin receptor (hTfR) fused to EGFP, on CHO cells (human, UniProt P02786 1-760); assay: flow cytometry on CHO-hTfR-EGFP cells, 1 hr at 4 C, anti-6His + Alexa647 anti-mouse; nonlinear fit
T4 construct: whole, on cells; also called human TfR; CHO-hTfR-EGFP; not shown: EGFP from pEGFP-C1 vector, fused to the N-terminal (intracellular) end of hTfR
Method: CHO-hTfR-EGFP cells were incubated 1 hr at 4° C. with various concentrations of the indicated compounds. Detection of VHHs was performed using a primary mouse anti-6His (1/1000) and an Alexa647-conjugated anti-mouse secondary antibody (1/400). Measurements of cell-surface signal associated with VHH were performed using flow cytometry. The results are expressed as the ratio of Alexa647-associated fluorescence intensity of test compounds to that of background fluorescence.

[5] = target: T4, human transferrin receptor (hTfR) fused …; assay: flow cytometry on CHO-hTfR-EGFP cells, 1 hr at 4 C, anti-6His + Alexa647 anti-mouse; ratio to background fluorescence
Method: FIGS. 15A-15H: In vitro gene silencing activity of VHH-siGFPst1 bioconjugates. […] CHO-hTfR-EGFP cells were incubated 1 hr at 4° C. with various concentrations of the indicated compounds. Detection of VHHs was performed using a primary mouse anti-6His (1/1000) and an Alexa647-conjugated anti-mouse secondary antibody (1/400). Measurements of cell-surface signal associated to VHH were performed using flow cytometry. The results are expressed as the ratio of Alexa647-associated fluorescence intensity of test compounds to that of background fluorescence. […] The total fluorescence associated to the EGFP protein was then quantified using flow cytometry and rationalized to that of untreated (control) cells (set at 100%) *** p≤0.001. […] The total fluorescence associated with the EGFP protein was then quantified using flow cytometry and rationalized to that of untreated (control) cells (set at 100%). […] CHO-hTfR-EGFP cells were incubated with the indicated compounds at 1 μM during 120 hrs at 37° C. Data were processed and analyzed as described in (B). *** p≤0.001 vs. untreated cells. […] The total fluorescence associated with the EGFP protein was then quantified using flow cytometry and rationalized to that of untreated (control) cells (set at 100%).

[6] = target: T4, human transferrin receptor (hTfR) fused …; assay: competition flow cytometry on CHO-hTfR-EGFP cells, 4 C; VHH competitor in dilution series, phage-C5 tracer at EC80, anti-M13-A647
Method: (§2) FIGS. 17A-17D: Competition assays between VHHs and phage-VHHs. CHO-hTfR-EGFP cells were incubated 1 hr at 4° C. with VHHs (competitors) at increasing concentrations. Phage-VHHs (tracers) were then added at EC80 and incubated for 1 more hr. Phage-VHHs were detected with an anti-M13-A647 antibody (1/200). Fluorescence levels were assessed using flow cytometry. The ratio of fluorescence intensity for each point was normalized with the corresponding EGFP signal (receptor expression) and gave rise to the arbitrary unit. Data are presented as mean±SEM of independent experiments.
(§3) To evaluate whether selected VHHs compete one with the other for binding to the TfR receptor, competition assays using flow cytometry experiments were performed. All experiments were performed in 96 well plates using 2×10⁵ cells/well, at 4° C. with shaking. CHO cell line expressing the hTfR fused to EGFP was saturated with PBS/BSA 2% solution during 30 min to avoid nonspecific binding, followed by incubation with VHH (competitors) at increasing concentrations for 1 hr. Then, phage-VHHs (tracers) at EC80 were added and incubated 1 hr more. To detect the phage-VHHs, cells were washed twice with PBS/BSA 2% and incubated for 1 hr with an Alexa647-conjugated anti-M13 antibody. […] Fluorescence levels were assessed using an Attune NxT flow cytometer (Thermo Fisher Scientific). […]

[7] = target: T4, human transferrin receptor (hTfR) fused …; assay: as above; remark: listed apart in the source
Method: as §2, §3

T4 sequence (P02786 whole entry, the tested form may be a part): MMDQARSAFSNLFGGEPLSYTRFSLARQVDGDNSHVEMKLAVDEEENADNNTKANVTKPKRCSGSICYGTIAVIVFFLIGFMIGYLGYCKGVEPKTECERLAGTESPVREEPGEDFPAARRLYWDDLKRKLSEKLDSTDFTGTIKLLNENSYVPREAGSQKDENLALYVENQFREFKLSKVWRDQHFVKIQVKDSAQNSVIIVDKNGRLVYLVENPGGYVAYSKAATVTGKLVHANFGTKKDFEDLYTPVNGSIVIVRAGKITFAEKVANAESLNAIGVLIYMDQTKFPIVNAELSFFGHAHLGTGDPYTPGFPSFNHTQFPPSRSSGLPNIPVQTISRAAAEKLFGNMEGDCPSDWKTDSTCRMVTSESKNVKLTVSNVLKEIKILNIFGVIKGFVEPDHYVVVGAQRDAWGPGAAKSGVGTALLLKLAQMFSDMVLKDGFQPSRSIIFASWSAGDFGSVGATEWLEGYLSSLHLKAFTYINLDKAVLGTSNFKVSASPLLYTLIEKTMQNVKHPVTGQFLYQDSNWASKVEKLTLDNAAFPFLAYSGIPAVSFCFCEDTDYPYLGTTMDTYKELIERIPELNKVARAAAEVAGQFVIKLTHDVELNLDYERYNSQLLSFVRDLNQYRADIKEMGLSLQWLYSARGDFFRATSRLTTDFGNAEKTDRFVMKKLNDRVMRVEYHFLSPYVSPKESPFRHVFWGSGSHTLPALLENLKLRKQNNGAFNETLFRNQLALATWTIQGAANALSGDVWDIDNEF
T2 sequence (Q62351 89-763): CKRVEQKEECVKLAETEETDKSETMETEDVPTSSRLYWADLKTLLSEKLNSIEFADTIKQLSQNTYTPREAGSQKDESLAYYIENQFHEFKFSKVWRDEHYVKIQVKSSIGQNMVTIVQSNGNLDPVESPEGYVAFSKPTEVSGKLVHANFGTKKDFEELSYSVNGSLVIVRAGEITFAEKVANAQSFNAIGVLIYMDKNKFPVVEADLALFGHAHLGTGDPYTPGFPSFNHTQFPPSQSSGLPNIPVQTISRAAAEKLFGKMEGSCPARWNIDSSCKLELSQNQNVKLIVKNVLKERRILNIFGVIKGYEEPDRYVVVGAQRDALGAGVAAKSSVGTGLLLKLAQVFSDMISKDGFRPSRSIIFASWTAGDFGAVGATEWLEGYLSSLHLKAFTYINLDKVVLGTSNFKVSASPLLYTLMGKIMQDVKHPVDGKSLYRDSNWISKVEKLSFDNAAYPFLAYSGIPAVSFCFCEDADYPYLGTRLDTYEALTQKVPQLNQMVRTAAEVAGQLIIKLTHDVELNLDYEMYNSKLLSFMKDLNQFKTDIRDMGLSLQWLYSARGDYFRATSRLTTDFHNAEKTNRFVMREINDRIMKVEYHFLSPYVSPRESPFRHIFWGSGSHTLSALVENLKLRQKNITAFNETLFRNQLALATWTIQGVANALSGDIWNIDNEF
T1 sequence (P02786 89-760): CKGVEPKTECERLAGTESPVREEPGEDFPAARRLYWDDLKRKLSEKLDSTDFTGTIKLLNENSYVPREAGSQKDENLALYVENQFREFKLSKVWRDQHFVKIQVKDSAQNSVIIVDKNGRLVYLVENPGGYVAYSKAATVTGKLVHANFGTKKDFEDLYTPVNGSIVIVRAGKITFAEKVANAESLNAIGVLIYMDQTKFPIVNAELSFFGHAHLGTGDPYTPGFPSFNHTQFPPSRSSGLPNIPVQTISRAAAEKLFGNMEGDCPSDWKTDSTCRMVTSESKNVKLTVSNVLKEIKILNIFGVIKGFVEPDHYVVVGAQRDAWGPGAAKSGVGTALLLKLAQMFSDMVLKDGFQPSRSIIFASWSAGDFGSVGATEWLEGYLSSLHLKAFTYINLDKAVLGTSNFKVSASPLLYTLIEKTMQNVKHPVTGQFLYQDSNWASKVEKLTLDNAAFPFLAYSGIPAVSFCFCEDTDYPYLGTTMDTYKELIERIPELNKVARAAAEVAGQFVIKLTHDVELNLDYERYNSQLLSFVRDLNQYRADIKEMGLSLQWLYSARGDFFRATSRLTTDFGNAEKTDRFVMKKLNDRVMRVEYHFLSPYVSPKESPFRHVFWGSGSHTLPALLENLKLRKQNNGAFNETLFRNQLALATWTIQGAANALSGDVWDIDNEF

- Kd [1]: 0.206 nM
- koff [1]: 0.000179 s⁻¹
- kon [1]: 665000 M⁻¹ s⁻¹
- Kd [2]: 88.5 nM
- koff [2]: 0.0447 s⁻¹
- kon [2]: 915000 M⁻¹ s⁻¹
- Kd [3]: 5.35 nM
- koff [3]: 0.00774 s⁻¹
- kon [3]: 1.55e+06 M⁻¹ s⁻¹
- Kd [4]: 5.15 nM
- EC50 (read off the curve) [5]: ~5 nM
- IC50 (read off the curve) [6]: ~50 nM
- IC50 (read off the curve) [7]: ~50 nM
B1: VHH A (C5) (VHH)
VHH: EVQLVESGGGVVQPGGSLKLSCVASGTDFSINFIRWYRQAPGKQREFVAGFTATGNTNYADSMKGRFTISRDNTKNAVYLQIDSLKPEDTAVYYCYMLDKWGQGTQVTVSS
notes: form with the C-terminal myc-His6 tag (x = 1), since the VHHs were detected with anti-6His or anti-cMyc; the same holds for m12 to m126
